Here are results for four sequences from publication PMC4950008.

For this series, the target named is T1, His-GlnR (UniProt O53830).
T1 sequence: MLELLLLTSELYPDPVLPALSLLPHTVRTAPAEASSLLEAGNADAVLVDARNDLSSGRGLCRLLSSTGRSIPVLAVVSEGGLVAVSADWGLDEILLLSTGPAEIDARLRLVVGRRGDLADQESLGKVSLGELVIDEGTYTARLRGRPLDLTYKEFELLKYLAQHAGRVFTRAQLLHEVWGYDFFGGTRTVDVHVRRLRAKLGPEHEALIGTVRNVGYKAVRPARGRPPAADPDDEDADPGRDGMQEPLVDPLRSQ
Briefly: EMSA. Background: In EMSA bound probe runs differently from free probe, usually more slowly.
“ACTCCCTGCGGCAAGGTGTAGGCCAGCTCGCGCAACTTAACCGCGCACTCGTAGAGCGTCTGGCGGAAATGCGTTTCGGTCATCGGGGTGCCTTCGCTCGTCGGCGAGATCGGCAGCGGTGTCTTGTGCTCATACAGATCAATCTCATTCATCAGAGCCATCATTCGCCGGCTAGCAGCTGCAAATCATCAGCACATCCACGTATGTC (double strand) [Rv1360 upstream region (negative control)]”: the binding result is “no binding”.
In the case of “CACAGACTCCATCTGTTGGGGGTTCAACGGGGATTCAACCGGACACTTAGCGCCACTATTGAATATGAATATCATTTGAACGAGAGGTTAACACAGCGTGACGACGGCCCAGGGCGGTGAGTTTGGTCACACGAGCGCTGGGCTCACCACCCCATGCTGGTGGGATTTAGC (double strand) [peak 13, Rv1386 (PE15) promoter region]”, the binding result was “binds”.
Take “CATGAGCTGATGAATGGAGTCCACTACCGGCCGGTGCGGCGACCAAGGATCTGTTTGCGACGGGATCTGTGCGACGTTGGCGGCAATCAGCTTGTTACAGCTGATAATCCGAGCGTGATCGCGACCTAACCGGCAGGCAACGCCGGCATGGTCCCCTGGCACGATGGGACTACTGTCACGCTTGCGCAAACGTGAGCCGATCAGCATCTACGACAAGATC (double strand) [peak 17, Rv1542c (glbN) promoter region]”: the binding result is “binds”.
“GTACGTCCACAATCGAAGGACGCGGAAGCACGGGGCCGCGACCACCGAGACCCGTGGCGGCCCATGGCCGCAAGGAGGCTCCTCGCGAGATTCGTCACGCGTTACCTGGATTTAACCTGCGCCCGTCCGAAGCGCCCGGCTTTTTCGTAGGCTTCGCTGCGGTTGGGGCCAGACAGCGCCGTGAAGCCCGGTGGGTGTGGCCGGCTGACGGGATGGT (double strand) [peak 18, Rv1548c (PPE22)/Rv1549 (fadD11) promoter region]”: the binding result is recorded as “binds”.
